Positions count from the first letter of the chain named.
T1: HCV Core1-169 (hepatitis C virus (HCV-1), UniProt P26664 1-169)
T1 sequence: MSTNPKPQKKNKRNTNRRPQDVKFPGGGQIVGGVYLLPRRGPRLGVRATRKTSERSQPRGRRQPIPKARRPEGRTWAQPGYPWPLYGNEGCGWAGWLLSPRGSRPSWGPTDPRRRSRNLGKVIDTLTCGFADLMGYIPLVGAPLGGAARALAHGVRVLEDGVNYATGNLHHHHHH

T2: HCV bt-134-154 (Peptide 1, HCVc 134-154) (Hepatitis C virus (numbering per HCV-1), biotin (carboxy-terminal per; N-terminal per))
T2 peptide: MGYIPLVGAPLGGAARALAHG

T3: HCV bt-141-161 (Peptide 2, HCVc 141-161) (Hepatitis C virus (numbering per HCV-1), biotin (carboxy-terminal per; N-terminal per))
T3 peptide: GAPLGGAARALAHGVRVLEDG

T4: HCV bt-151-171 (Peptide 3, HCVc 151-171) (Hepatitis C virus (numbering per HCV-1), biotin (carboxy-terminal per; N-terminal per))
T4 peptide: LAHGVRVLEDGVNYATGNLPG

B1: HCV 208A-126 (antibody, V domains shown)
VH: QLQQSGPVLVKPGASVMISCKTSGYTFTENAMHWVKQSHGKSLEWIGGVNPNNGDTIFNQKFKGKATLTVDKSSNTAFTELRSLPSEESTVYYCVRRGLDFFDYWGQGTSVTVSS
VL: DIVLTQSPASLAVSLGQRATISCRASQSVSTSRYSYMHWYQQKPGQPPKLLIKYASNLESGVPARFSGSGSGTDFTLNIHPVAEEDTAAYYCQHSWEFPFTFGSGTKLEIKR
B2: HCV 208B-178 (antibody, V domains shown)
VH: DVKLVESGGGLVKLGGSLKLSCAASGFTFSSYYMSWVRQTPEKRLELVAAINSNGGSTYYPDTVKGRFTISRDNAKNTLYLQMSSLKSEDTALYYCARHGGLGRRDWYFDVWGAGTTVTVSS
VL: DIVLTQSPASLAVSLGQRATISCRASESVDNYGISFMHWYQQKPGQPPKLLIYRASNLESGIPARFSGSGSRTDFTLTINPVETDDVATYYCQQSNKDPFTFGSGAKLEIKR
B3: HCV 208A-422 (antibody, V domains shown)
VH: DVQLQESGPGLVNPSQSLSLTCSVTGYSITSGYYWIWIQQSPGNKLEWMGYIKYDGGNNYSPSLKNRISIARDTSKNQCFLKLNSVTIEDTATYYCTRGSDSFDYWGQGTTLTVSS
VL: DIVLTQSPASLAVSLGQRAIISCKASQSVSFAGTNLMHWYQQKPGQQPKLLIYRASNLETGVPTRFSGSGSRTDFTLNIHPVEEDDAATYYCQQSREYYTFGGGTKLEIKR
B4: HCV 208A-442 (antibody, V domains shown)
VH: B3 VH with Q39R, S41F, C79F
VL: B3 VL
B5: HCV 208B-327 (antibody, V domains shown)
VH: EVQLVESGGGLVKPGGSLKLSCAASGFTFSDSYMYWVRQTPDQRLEWVATISDGGSYTFYPDSVKGRFTISRDNAQNNLYLQMSSLKSEDTAMYYCASPHAGYFGWFAYWGRGTLVTVSA
VL: DIVMTQAAFSNPVTPGTSVSISCRSSKSLLHSNGITYLYWYLQKPGQSPQLLIYQMSKIASGVPDRFRSSGSGTDFTLRISRVEAADVGVYYCAQNLELPWTFGGGTKLEIKR
B6: HCV 208A-874 (antibody, V domains shown)
VH: QVQLQQPGAELVKPGASVKLSCKASGYTLSSYWMHWVKQRPGQGLEWIGEIHPSDSYTSYNQKFKDKATLTVDKSSSTAYMQLSSLTSEDSAVYYCARGGYYRYDEFAYWGQGTLVTVSA
VL: DIVMTQSHKFMSTSIGDRVSITCKASQNVSPAVAWYQQKPGQSPKLLIYSASSRYTGVPDRFTGSGSGTAFTFTISSVQAEDLAVYFCQQHFSTPWTFGGGTMLEIKR
B7: HCV 208A-210 (antibody, V domains shown)
VH: QVQLQQSGPELVKPGASMRISCKASGYTFTSYYVHWIKQRPGQGLEWIGCIYPGDVNTDYNEKFKGKATLTADKSSSTAYMQVSTLTSEDSAIYFCVLYYYGSFAYWGQGTLVTVSA
VL: EIVLTQSPAITAASLGQNVTITCRASSSVSYMHWYRQKSGTSPQLWIYEISRRASGVPARFRASGSGTSYSLTISSMEAEDAAIYYCQQWNYPLTFGAGTKLEVKR
B8: HCV 208A-692 (antibody, V domains shown)
VH: QGQMQQSGAELAKPGASVKLSCKTSGFTFSSSYISWLKQKPGQSLEWIAWIFAGTGNTNYNQKFTDKAQLTVDTSSSTAYMQLSSLTTEDSAIYYCAISGTGFTYWGQGTLVTVSA
VL: EVLMTQSPLSLPVSLGDQASISCRSSQSLEHSNGNTYLEWFLQRPGQPPKLLIYKVSSRFSGVPDRFSGSGSGTDFTLKISRVEAEDLGVYYCFQGSHVPFTFGSGTKLAIKR
B9: HCV 208B-612 (antibody, V domains shown)
VH: EVQLQQSGPELVKPGASVKMSCKASGYRFTSYVMHWVRQKPGQGLEWIGYIDPHNDDTKYSEKFRGKATLTSDKSSTTAYMELSSLTSEDSAVYYCVRYSYDRDYSPMDYWGQGTSVTVSS
VL: QIVLTQSPTLMSASPGEKVTMTCSASSTVTYIYWYQQKPGSSPRLWMYDTFNLVSGVPARFSGSRSGTSYFLTISSMEGEDAATYYCQQYSDSPYTFGGGTKLEIKR
B10: HCV 208B-911 (antibody, V domains shown)
VH: QVHLQQPGAELVRPGVSVKLSCKASGYTFTTYSINWMKQRPGQGLEWIGNIYPSTSHTNYNQKFRDKATMTVDKSSSTAYMQLSSPTSEDSAVYYCTINAYSMDYWGQGTSVTVSS
VL: QIVLTQSPEIMSASPGEKVTITCSASSSVSFMYWFQQKPGTSPKLWIYITSNLASGVPTRFSGSGSGTSYSLTISRMEAEDAATYYCQQRSSFPYTFGGGTKLEMKR
B11: HCV 208B-822 (antibody, V domains shown)
VH: QVQLKQSGPGLVQPSQSLSITCTVSGFSLITYGVHWVRQSPGKGLEWLGVIWGGGSTGYNAAFVSRLNITKDNSKSQVFFKMNSLQPDDTAIYYCARNGGATVFDYWGQGTTLTVSS
VL: DIVMTQSPATLSVTPGDRVSLSCRASQTISDYLHWYQQKSHESPRLLIKYASQSISGIPSRFSGSGSGSHFTLSINSVEPEDVGVYYCQNGHSFPWTFGGGTKLEIKR
B12: HCV 208B-793 (antibody, V domains shown)
VH: EVKLVESGGGLVQPGGSLKLSCAASGFTFSSYAMSWVRQTPERRLEWVTYISNGGGSTYYSDTVKGRFTFSRDNAKNTLYLQMSSLKSEDTAMYYCARHGLGRTGFASWGQGTLVTVSA
VL: DIVMTQSHKFMSTSVGDRVSITCKASQDVGTAVAWYQQKPGQSPKLLIYWASTRHTGVPDRFTGSGSGTDFTLTISNVQSEDLADYFCQQYSNYLTFGAGTKLEVKR
B13: HCV 208B-672 (antibody, V domains shown)
VH: EVKLVESGGSLVQPGGSLKLSCAASGFNFNTYAMSWVRQTPEKRLEWVAYISNGGGNTYYVDTVKGRFTISRDNAKNTLYLRMSSLKSEDTAMYYCARHGLYWGYSMDYWGQGTSVTVSS
VL: DIQMTQSPSSLSASLGERVSLTCRASQDIGGSINWLQQEPDGTIKRLIYATSSLDSGVPKRFSGSRSGSDYSLTISSLESEDFVDYYCLQYASSPPTFGGGTKLEIKR
B14: HCV 208A-210 (antibody, V domains shown)
VH: B7 VH
VL: B7 VL
B15: HCV 208B-826 (antibody, V domains shown)
VH: DVQLVESGGGLVQAGGSRKLSCAASGFPFSSFGMHWVRQAPEKGLEWVASISSRTSKIYYADNLKGRFTISRDNPKNTLFLQMTSLGSEDTAMYYCVRSVFGNSYWFFDVWGAGTTVTVSS
VL: DIVLTQSPATLSVTPGDRVSLSCRASQRIYNYLHWYQQKSHESPRLLTKYASQSISGIPSRFSGSGSGTDFILTINSVETEDFGMYFCQQSNSWPLTFGAGTKLELRR
B16: HCV 208A-207 (antibody, V domains shown)
VH: QGQLQQPGAEFVKPGASLKLSCRASGYTFTSYWIHWVKQRPGQGLEWIGEIDPSDSYINQNQKFRGKATLTVDKSSSTAYMELSGLTSEDSAVYYCARHYYGVLDSWGQGTTLTVSS
VL: B15 VL

These binders were tested against T1, HCV Core1-169 (assay: SPR sandwich, capture mAb C11-3).

| Binder | expected percent binding |
| --- | --- |
| B1 | 1.2% |
| B2 | ≤ 1% |
| B3 | ≤ 1% |
| B4 | ≤ 1% |
| B5 | ≤ 1% |
| B6 | ≤ 1% |
| B7 | 1.2% |
| B8 | ≤ 1% |

These binders were tested against T1, HCV Core1-169 (assay: SPR sandwich, capture mAb C11-7).

| Binder | expected percent binding |
| --- | --- |
| B1 | 2% |
| B2 | 1.7% |
| B3 | ≤ 1% |
| B4 | 1.6% |
| B5 | ≤ 1% |
| B6 | ≤ 1% |
| B7 | 1.6% |
| B8 | ≤ 1% |

The binders below were run against T1, HCV Core1-169 (assay: SPR sandwich, capture mAb C11-9).

| Binder | expected percent binding |
| --- | --- |
| B1 | ≤ 1% |
| B2 | ≤ 1% |
| B3 | ≤ 1% |
| B4 | ≤ 1% |
| B5 | ≤ 1% |
| B6 | ≤ 1% |
| B7 | ≤ 1% |
| B8 | ≤ 1% |

Each binder was assayed against T1, HCV Core1-169 (assay: SPR sandwich, capture mAb C11-14).

| Binder | expected percent binding |
| --- | --- |
| B1 | 1.3% |
| B2 | ≤ 1% |
| B3 | ≤ 1% |
| B4 | ≤ 1% |
| B5 | ≤ 1% |
| B6 | ≤ 1% |
| B7 | ≤ 1% |
| B8 | ≤ 1% |

Target: T2, HCV bt-134-154 (Peptide 1, HCVc 134-154)
Assay: EIA, captured mAb + biotin peptide

| Binder | Reactivity (OD 492 nm) |
| --- | --- |
| B9 | 3.05 OD units |
| B10 | 0.09 OD units |
| B11 | 0.08 OD units |
| B12 | 0.09 OD units |
| B13 | 0.08 OD units |
| B14 | 0.06 OD units |
| B15 | 0.53 OD units |
| B16 | 1.24 OD units |

Target: T3, HCV bt-141-161 (Peptide 2, HCVc 141-161)
Assay: EIA, captured mAb + biotin peptide

| Binder | Reactivity (OD 492 nm) |
| --- | --- |
| B9 | 3.04 OD units |
| B10 | 0.09 OD units |
| B11 | 1.35 OD units |
| B12 | 0.72 OD units |
| B13 | 2.79 OD units |
| B14 | 1.15 OD units |
| B15 | 1.35 OD units |
| B16 | 0.17 OD units |

Target: T4, HCV bt-151-171 (Peptide 3, HCVc 151-171)
Assay: EIA, captured mAb + biotin peptide

| Binder | Reactivity (OD 492 nm) |
| --- | --- |
| B9 | 0.15 OD units |
| B10 | 0.71 OD units |
| B11 | 0.07 OD units |
| B12 | 0.09 OD units |
| B13 | 0.1 OD units |
| B14 | 0.05 OD units |
| B15 | 0.08 OD units |
| B16 | 0.08 OD units |

From patent US20170052184A1 (published 2017)
